The values below come from US20210198377A1 (XDCEXPLORER SHANGHAI, published 2021).

By EC50 is commonly meant the concentration at which the effect is half-maximal.

T1: cynomolgus monkey TPBG (full length, on cells) (cynomolgus monkey, UniProt Q4R8Y9 35-420)
T1 construct: whole, on cells; On transfected CHO-K1 cells; also called cTPBG; CHO-K1-cTPBG
T1 sequence (looked up): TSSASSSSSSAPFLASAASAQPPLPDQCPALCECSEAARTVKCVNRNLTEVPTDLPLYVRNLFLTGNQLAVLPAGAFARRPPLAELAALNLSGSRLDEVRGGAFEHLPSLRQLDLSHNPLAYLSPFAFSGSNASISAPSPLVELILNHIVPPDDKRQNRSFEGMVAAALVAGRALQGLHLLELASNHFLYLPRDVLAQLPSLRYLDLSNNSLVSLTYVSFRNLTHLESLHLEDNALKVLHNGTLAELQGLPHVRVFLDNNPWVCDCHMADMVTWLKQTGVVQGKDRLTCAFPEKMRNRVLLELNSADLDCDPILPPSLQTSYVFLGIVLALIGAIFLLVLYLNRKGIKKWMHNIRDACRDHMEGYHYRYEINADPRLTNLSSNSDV

T2: human TPBG-hFc (human, UniProt Q13641 32-355)
T2 construct: also called immunogen A; hFc tagged TPBG protein; not shown: The human IgG Fc fragment of the pCpC vector (Invitrogen V044-50) and any linker to it
T2 sequence: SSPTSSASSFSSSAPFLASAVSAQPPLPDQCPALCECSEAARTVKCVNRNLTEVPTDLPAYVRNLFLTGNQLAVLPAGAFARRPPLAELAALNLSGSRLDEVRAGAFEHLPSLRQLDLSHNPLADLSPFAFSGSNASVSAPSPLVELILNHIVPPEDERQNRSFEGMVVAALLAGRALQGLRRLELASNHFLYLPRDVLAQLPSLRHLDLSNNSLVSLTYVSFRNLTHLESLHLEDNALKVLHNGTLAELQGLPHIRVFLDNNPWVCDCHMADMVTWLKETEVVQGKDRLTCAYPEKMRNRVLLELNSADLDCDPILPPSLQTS

T3: mouse TPBG (full length, on cells) (mouse, UniProt Q9Z0L0 32-426)
T3 construct: whole, on cells; On transfected CHO-K1 cells; also called mTPBG; CHO-K1-mTPBG
T3 sequence (looked up): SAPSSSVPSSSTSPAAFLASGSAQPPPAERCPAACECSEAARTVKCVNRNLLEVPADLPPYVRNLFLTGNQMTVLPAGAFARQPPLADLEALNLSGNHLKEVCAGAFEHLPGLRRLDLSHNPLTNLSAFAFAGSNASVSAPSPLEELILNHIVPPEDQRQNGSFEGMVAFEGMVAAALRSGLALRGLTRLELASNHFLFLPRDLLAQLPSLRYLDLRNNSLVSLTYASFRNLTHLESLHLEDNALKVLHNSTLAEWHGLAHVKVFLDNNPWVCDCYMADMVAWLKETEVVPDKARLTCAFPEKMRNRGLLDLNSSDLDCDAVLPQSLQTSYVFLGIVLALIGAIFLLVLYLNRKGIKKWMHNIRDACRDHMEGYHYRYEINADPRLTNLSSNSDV

B1: 5G4H10G5 (antibody, V domains shown)
VH: EVQLVESGGDLVQPGGSLKLFCAASGFTFSTYGLSWVRQTPDKRLELVATITNNDGSAYYPDSVKGRFTISRDKAKNTLFLQMTSLKSEDTAMYYCARETGFGSSYLFDYWGQGTLVTVSA
VL: NIVMTQTPKFLLVSAGDRVTITCKASQSVSNDVAWYQQKPGQSPKLLIYFATNRYTGVPNRFTGSGYGTEFTFTISSVQAEDLAVYFCQQDYSSPTFGGGTKLEIK
notes: Mouse hybridoma antibody purified from culture supernatant; also called TPBG antibody; lead antibody
B2: 99E12C7H1 (antibody, V domains shown)
VH: QIQLVQSGPELKKPGETVKISCKPSGYTFTAYGLSWVKQAPGQGFQWMGWINTYSGVPTYTDDFKGRFAFSLETSAGTASLQITNLKNEDTATYFCARSSIPPFEYWGPGTTLTVSS
VL: SFVMTQSPKFLLVSVGDRVTITCKASQSVSNDVAWYQQKPGQPPRVLIYFASNRYTGVPDRFTGSGYGTDFTFTISTVQAEDLALYFCQQDYSSPWTFGGGTKLEIK
notes: as for B1
B3: 36A10D8B12 (antibody, V domains shown)
VH: DVQLQESGPGMVKPSQSLSLTCTVTGYSITSGYDWHWIRHFPGNKLEWMGYISYSGNTNYNPSLKSRISITHNTSKNHFFLRLNSVTTEDTATYYCARGYGNWDAMDYWGQGTSVTVSS
VL: DIVMTQSQKFMSTSVGDRVSVTCKASQIVDTNVAWYQQKPGQSPKALISSASYRYSGVPDRFTGSGSGTDFTLTISNVQSEDLAEYFCQQYNSYPLTFGAGTKLELT
notes: as for B1
B4: 28D4E6A9 (antibody, V domains shown)
VH: DVQLVESGGGLVRPGGSLKLSCAASGFTFSNYVMSWARQSPEKRLEWVAEISTGGSHTYYSDTVTGRFTISRDNAKKALYLEMSSLRSEDTAIYYCIMFYYGSSYSMDYWGQGTSVTVSS
VL: DIQMTQSTSSLSASLGDRITISCRASQDIRNYLNWYQQKPDGTVKLLIYHTSRLHSGVPSRFSGSGSGTDYSLTISNLEQEDIATYFCQQGDTLPLTFGAGTRLELK
notes: as for B1
B5: 39A11G5F2 (antibody, V domains shown)
VH: QVQLQQSGAELMKPGASMRLSCKATGYTFTGYWLEWIKRRPGHGLEWIGEILPGRGSTNYNEKFKGKATFTAETSSNTAYMQLTSLTTEDSAIYYCARGGRDFDNWGQGTTLTVSS
VL: DIQMTQSTSSLSASLGDRVTISCSASQGINNHLNWYQQKPDGTVKLLIYYTSSLHSGVPSRFSGSGSGTDYSLTISNLEPEDIAIYYCQQFSKLPYTFGGGTKVEMK
notes: as for B1
B6: 52C9E9F6 (antibody, V domains shown)
VH: QVQLQQSGAELMKPGASVKLSCKATGYTFTGYWIEWIKQRPGHGLEWIGEILPGRGSTDYNEKFKGKATFTADTSSNTAYMQLSSLTTEDSAIYYCTRGRLDFTYWGQGTLVTVSA
VL: B5 VL with S7T, N30R, H32Y, I85T, F91Y, L94V, Y96W, V104L, M106I
notes: as for B1
B7: 103E2E9C2 (antibody, V domains shown)
VH: EVQLQQSGPVLVKPGASVKMSCEASGYSFIDYYMSWVKQSRGRSLEWIGVFNPYSGEIIYNQKFKGKATLTVDKSSSTAYMELSSLTSEDSGVYSCARLRISYYAIDYWGQGTSVAVSS
VL: ENVLTQSPAIMSASPGEKVTMTCRATSSVSSGHFHWYQQKSGASPKVWIYSTSNLASGVPARFSGSGSGTSFSLTISSVEAEDVATYFCQQYSGYPLTFGGGTKLEIK
notes: as for B1
B8: 37H9C5G2 (antibody, V domains shown)
VH: QVQLQQSDAELVRPGASVKMSCKVSGYTFTDHTIHWMKQRPEQGLEWIGYIYPRDGSGTYNEKFKGKATLTADKSSSTAYMQLNSLTSEDSAVYFCARDGSSHYWYFDVWGTGTTVTVSS
VL: DIQMTQSPASLSASVGETVTITCRASEIIYNYLAWYQQKQGKSPQLLVYNAKTLAEGVPSRFSGSYSGTQFSLNINSLQSEDFGIYYCQHHHDTPLTFGAGTKLDLK
notes: as for B1
B9: 106D5G3D10 (antibody, V domains shown)
VH: EVQLVESGGGLVKPGGSLKLSCAASGFTFSDYGMHWVRQAPEKGLEWVGYISSGTYVVYYADTVKGRFTISRDNAKNTLFLQMTSLRSEDTAIYYCSTYGSNPFDYWGQGTTLTVSS
VL: QLVLTQSPAIMSASPGEKVTITCSATSSVSSMHWFQQKPVTSPKLWIYSTSNLASGVPTRFSGSGSGTSYSLTISRMEAEDAATYYCQQRSGYPPIFTFGSGTKLEIK
notes: as for B1

Where a chain is given by its changes, count along the chain named.

The target of the first assay is T1, cynomolgus monkey TPBG (full length, on …). Briefly: FACS on CHO-K1-cTPBG cells. The text has this: (§1) The stable cell lines CHO-k1-hTPBG, CHO-k1-cTPBG, CHO-k1-mTPBG (i.e. the CHO-k1-hTPBG 3A2F1, CHO-k1-cTPBG 3F13G4 and CHO-k1-mTPBG 3A3 shown in table 7) and CHO-K1 cells were expanded to a 90% of confluency in T-75 cell culture flasks, the culture medium were removed, and cells were then rinsed twice with HBSS buffer (Hanks Balanced Salt Solution, purchased from Invitrogen) and lysed with enzyme-free cell dissociation buffer (Versene solution purchased from Life technology) and harvested. Harvested cells were rinsed with HBSS buffer twice and counted before diluting with HBSS buffer to 2×10⁶ cells /mL, and 10% goat serum blocking buffer was then added, wherein the percentage is the mass percentage. Cells were incubated on ice for 30 min, and then washed twice with HBSS buffer by centrifugation. The harvested cells were resuspended with FACS buffer (HBSS+1% BSA, wherein the percentage is mass percentage) to a concentration of 2×10⁶ cells /mL. 100 μL per well of the cells was aliquoted to 96-well FACS reaction plates, and 100 μL per well of test sample—the purified TPBG antibody obtaining from Embodiment 2 was added before incubating on ice for 2 h. The plate was washed with the FACS buffer twice by centrifugation, and 100 μL per well of fluorescence (Alexa 488) labeled secondary antibody (purchased from Invitrogen) was then added and incubated on ice for 1 h. The plate was washed with the FACS buffer for three times by centrifugation, follow by resuspending in 100 μL of fixation buffer (4% (v/v) paraformaldehyde). Cells were washed with FACS buffer twice after 10 min, follow by resuspending with 100 μL of FACS buffer. The results were measured and analyzed by FACS (FACS Calibur, purchased from BD). Data analysis was performed by software (CellQuest) to obtain mean fluorescence intensity (MFI) of the cells, follow by calculating EC50 value by software (GraphPad Prism) analysis and data fitting. The analysis results were shown in Table 8 and FIGS. 7-10, and data in FIGS. 7-10 show the mean fluorescence intensity (MFI) of cells.
B1: a half-maximal effect (EC50) was put at 0.84 nM.
The same measure, in the same setting: the same measure for B2: 2.29 nM.
Regarding B3, the EC50 came to 0.6 nM.
For the molecule B4, the midpoint of the response, the EC50, lay at 0.25 nM.
B5 returned an EC50 of 1.35 nM.
The molecule B6 had an EC50 of 1.54 nM.
B7: a half-maximal effect (EC50) was put at 0.83 nM.
On the same count and under the same terms, the same measure for B8: 0.62 nM.
Regarding B9, the EC50 worked out at 1.26 nM.

In the next assay the target is T2, human TPBG-hFc. Briefly: ELISA, coated human TPBG-hFc 1.0 ug/mL; antibody 0.0002 nM. How it is done:
(§2) The purified immunogen A (as for its method of preparation please refer to step 1 in Example 1) diluting with PBS to a final concentration of 1.0 μg/mL was aliquoted into a 96-well ELISA plate at 100 μL per well, and sealed with a parafilm and incubated at 4° C. overnight. The plate was washed twice with plate washing buffer (PBS containing 0.01% (v/v) Tween 20), and blocked with blocking buffer (PBS containing 0.01% (v/v) Tween 20 and 1% (w/w) BSA) at room temperature for 2 h. The blocking buffer was discarded, and 100 μL per well of the purified antibody obtained from Embodiment 2 was added. After incubating at 37° C. for 2 h, the plate was washed for three times with plate washing buffer (PBS containing 0.01% (v/v) Tween 20). HRP (horseradish peroxidase)-labeled secondary antibody (purchased from Sigma) was added and incubated at 37° C. for 2 h, and the plate was washed for three times using plate washing buffer (PBS containing 0.01% (v/v) Tween 20). 100 μL of TMB substrate was aliquoted into each well, incubated at room temperature for 30 min, and 100 μL of stop buffer (1.0N HCl) per well was subsequently added. A₄₅₀ₙₘ values were read using the ELISA plate reader (SpectraMax 384plus purchased from Molecular Device), and the results were shown in FIG. 6 and table 6. […] In Table 6 the IgG control herein is a mice IgG control, the data in the Table are OD₄₅₀ₘₙ values, and Blank means the OD₄₅₀ₘₙ value when there is only PBS buffer in the plate.
(In general: An ELISA detects its analyte on a solid surface through an enzyme-linked reagent.)
In turn, B1 came in with an OD450nm of 0.08 OD450nm.
Same read-out and setting: for B2 the value was 0.11 OD450nm; for B3, 0.16 OD450nm.
As to B4, the OD450nm amounted to 0.1 OD450nm.
In turn, B5 yielded an OD450nm of 0.09 OD450nm.
In turn, B6 came in with an OD450nm of 0.09 OD450nm.
With B7, the OD450nm was 0.1 OD450nm.
On to B8, for which the OD450nm was 0.09 OD450nm.
With B9, the OD450nm was 0.11 OD450nm.

The next assay addresses T3, mouse TPBG (full length, on cells). Briefly: FACS on CHO-K1-mTPBG cells.
Description: as §1
Molecule B1 gave an EC50 of 9.07 nM.
For B2, the binding result is “no binding”.
B3: the binding result is reported as “no binding”.
On to B4, for which the binding result is recorded as “no binding”.
Molecule B5 returned an EC50 of 1.88 nM.
Regarding B6, the binding result is “no binding”.
For B7, the binding result is “no binding”.
Molecule B8 displayed a half-maximal effective concentration (EC50) of 11.1 nM.
On to B9, for which the binding result is recorded as “no binding”.

A further assay deals with T2, human TPBG-hFc. Briefly: ELISA, coated human TPBG-hFc 1.0 ug/mL; antibody 0.02 nM. How it is done:
as §2
Consider B1, for which the OD450nm is 0.34 OD450nm.
B2 showed an OD450nm of 0.78 OD450nm.
In turn, B3 showed an OD450nm of 0.51 OD450nm.
Molecule B4 yielded an OD450nm of 0.46 OD450nm.
The molecule B5 had an OD450nm of 0.3 OD450nm.
On to B6, for which the OD450nm was found to be 0.27 OD450nm.
In turn, B7 gave an OD450nm of 0.48 OD450nm.
The molecule B8 came in with an OD450nm of 0.35 OD450nm.
The molecule B9 returned an OD450nm of 0.56 OD450nm.
